From PMC12278352, “Characterization of DnaB–DnaG Interaction in M. tuberculosis Using Small‐Angle X‐ray Scattering‐Based Dissociation Assay” (Chembiochem, 2025)

Legend:
[1] = target: the molecule itself; experiment: SAXS; T7 primase at constant concentration (1 mg/ml in the methods, 50 μM in the legend) with increasing 4-mer RNA (5'-ACCC-3'), RNA:protein molar ratio 1 to 10, in the presence of ATP/CTP, RNA and Mg2+; 20 mM Tris-HCl pH 7.5, 1 mM DTT; 4 °C; Rg against theoretical monomer (24 Å) and dimer (27 Å)
[2] = target: the molecule itself; experiment: cross-linking; Fe(II)-catalysed cross-linking of T7 primase (15 μM) with 1 mM ATP, ferrous chloride, H2O2, ascorbic acid, room temperature 45 min; products analysed by Superdex 200 SEC, SDS-PAGE and MALDI-TOF
[3] = target: the molecule itself; experiment: SPR; full-length DnaG (7.2 μg) immobilised on a GLC chip by amine coupling; soluble DnaG 0-17 μM, 60 μL/min; signal at equilibrium; profile did not follow a pure 1:1 fit; monomer to dimer

Protein | stoichiometry N [1] | stoichiometry N [2] | Kd [3] [nM]
primase domain of gene 4 protein (gp4) from bacteriophage T7 (residues 1–271) (domain or fragment, UniProt P03692 1-271, looked up, primase domain of gene 4 protein (gp4), bacteriophage T7, residues 1-271; For the NMR spectra the protein was 15N-labelled and deuterated; Monomer without cofactors, dimer with ATP/CTP, RNA and Mg2+; also called T7 primase; T7 DNA primase) MDNSHDSDSVFLYHIPCDNCGSSDGNSLFSDGHTFCYVCEKWTAGNEDTKERASKRKPSGGKPMTYNVWNFGESNGRYSALTARGISKETCQKAGYWIAKVDGVMYQVADYRDQNGNIVSQKVRDKDKNFKTTGSHKSDALFGKHLWNGGKKIVVTEGEIDMLTVMELQDCKYPVVSLGHGASAAKKTCAANYEYFDQFEQIILMFDMDEAGRKAVEEAAQVLPAGKVRVAVLPCKDANECHLNGHDREIMEQVWNAGPWIPDGVVSALSL | 2 | 3 | –
M. tuberculosis DnaG primase, full-length (enzyme, DnaG primase, Mycobacterium tuberculosis, full length (the truncated form ends at amino acid 639); also called full DnaG; full-length DnaG) MSGRISDRDIAAIREGARIEDVVGDYVQLRRAGADSLKGLCPFHNEKSPSFHVRPNHGHFHCFGCGEGGDVYAFIQKIEHVSFVEAVELLADRIGHTISYTGAATSVQRDRGSRSRLLAANAAAAAFYAQALQSDEAAPARQYLTERSFDAAAARKFGCGFAPSGWDSLTKHLQRKGFEFEELEAAGLSRQGRHGPMDRFHRRLLWPIRTSAGEVVGFGARRLFDDDAMEAKYVNTPETLLYKKSSVMFGIDLAKRDIAKGHQAVVVEGYTDVMAMHLAGVTTAVASCGTAFGGEHLAMLRRLMMDDSFFRGELIYVFDGDEAGRAAALKAFDGEQKLAGQSFVAVAPDGMDPCDLRLKCGDAALRDLVARRTPLFEFAIRAAIAEMDLDSAEGRVAALRRCVPMVGQIKDPTLRDEYARQLAGWVGWADVAQVIGRVRGEAKRTKHPRLGRLGSTTIARAAQRPTAGPPTELAVRPDPRDPTLWPQREALKSALQYPALAGPVFDALTVEGFTHPEYAAVRAAIDTAGGTSAGLSGAQWLDMVRQQTTSTVTSALISELGVEAIQVDDDKLPRYIAGVLARLQEVWLGRQIAEVKSKLQRMSPIEQGDEYHALFGDLVAMEAYRRSLLEQASGDDLTA | – | – | 2000 ± 300
